Stoichiometry N data for one substance are collected here from paper PMC12872393, “NCOA4 initiates ferritinophagy by avidly binding GATE16 using two short linear interaction motifs” (Life Science Alliance, 2026).

The target in the assay is (GST-GATE16)2 (UniProt P60520). Kind of assay: SEC-MALS; 100 μl of 1 mg/ml protein on a WTC-030 column; 20 mM Tris, 150 mM NaCl, pH 7.5; 0.5 ml/min.

For “(GST-GATE16)2 (from UniProt P60520 1-117) (natural protein)”, the stoichiometry N came out at 2.
